The labels stand for the following.
B1: IAb_Cys-Db3b_CD8-Df (other)
chain: DVQITQSPSSLSASVGDRVTITCRTSRSISQYLAWYQQKPGKVPKLLIYSGSTLQSGVPSRFSGSGSGTDFTLTISSLQPEDVATYYCQQHNENPLTFGGGTKVEIKGGGSGGGGEVQLVESGGGLVQPGGSLRLSCAASGFNIKDTYIHFVRQAPGKGLEWIGRIDPANDNTLYASKFQGKATISADTSKNTAYLQMNSLRAEDTAVYYCGRGYGYYVFDHWGQGTLVTVSSGGC
modifications: Desferoxamine (Df) conjugated to the C-terminal cysteine
notes: also called Df-labeled cys-diabody
B2: Humanized IAb_Mb1_CD8 (other)
chain: DVQITQSPSSLSASVGDRVTITCRTSRSISQYLAWYQQKPGKVPKLLIYSGSTLQSGVPSRFSGSGSGTDFTLTISSLQPEDVATYYCQQHNENPLTFGGGTKVEIKGSTSGGGSGGGSGGGGSSQVQLVQSGAEVKKPGATVKISCKVSGFNIKDTYIHWVQQAPGKGLEWMGRIDPANDNTLYASKFQGRVTITADTSTDTAYMELSSLRSEDTAVYYCARGYGYYVFDHWGQGTLVTVSSEPKSCDKTHTCPPCGGGSSGGGSGGQPREPQVYTLPPSRDELTKNQVSLTCLVKGFYPSDIAVEWESNGQPENNYKTTPPVLDSDGSFFLYSKLTVDKSRWQQGNVFSCSVMHEALHNHYTQKSLSLSPGK
notes: Minibody homodimer, tested as transfection supernatant; also called humanized OKT8 minibody VL-VH; humanized variants
B3: Humanized IAb_Mb2_CD8 (other)
chain: QVQLVQSGAEVKKPGATVKISCKVSGFNIKDTYIHWVQQAPGKGLEWMGRIDPANDNTLYASKFQGRVTITADTSTDTAYMELSSLRSEDTAVYYCARGYGYYVFDHWGQGTLVTVSSGSTSGGGSGGGSGGGGSSDVQITQSPSSLSASVGDRVTITCRTSRSISQYLAWYQQKPGKVPKLLIYSGSTLQSGVPSRFSGSGSGTDFTLTISSLQPEDVATYYCQQHNENPLTFGGGTKVEIKEPKSCDKTHTCPPCGGGSSGGGSGGQPREPQVYTLPPSRDELTKNQVSLTCLVKGFYPSDIAVEWESNGQPENNYKTTPPVLDSDGSFFLYSKLTVDKSRWQQGNVFSCSVMHEALHNHYTQKSLSLSPGK
notes: Minibody homodimer, tested as transfection supernatant; also called humanized OKT8 minibody VH-VL; humanized variants
B4: IAb_M1b_CD8 IgG2 EH (other)
chain: DVQITQSPSSLSASVGDRVTITCRTSRSISQYLAWYQQKPGKVPKLLIYSGSTLQSGVPSRFSGSGSGTDFTLTISSLQPEDVATYYCQQHNENPLTFGGGTKVEIKGSTSGGGSGGGSGGGGSSEVQLVESGGGLVQPGGSLRLSCAASGFNIKDTYIHFVRQAPGKGLEWIGRIDPANDNTLYASKFQGKATISADTSKNTAYLQMNSLRAEDTAVYYCGRGYGYYVFDHWGQGTLVTVSSERKCCVECPPCPGGGSSGGGSGGQPREPQVYTLPPSREEMTKNQVSLTCLVKGFYPSDIAVEWESNGQPENNYKTTPPMLDSDGSFFLYSKLTVDKSRWQQGNVFSCSVMHEALHNHYTQKSLSLSPGK
notes: Minibody homodimer with artificial IgG2 hinge-extension and IgG2 CH3
B5: IAb_M1b_CD8 IgG2 NH (other)
chain: DVQITQSPSSLSASVGDRVTITCRTSRSISQYLAWYQQKPGKVPKLLIYSGSTLQSGVPSRFSGSGSGTDFTLTISSLQPEDVATYYCQQHNENPLTFGGGTKVEIKGSTSGGGSGGGSGGGGSSEVQLVESGGGLVQPGGSLRLSCAASGFNIKDTYIHFVRQAPGKGLEWIGRIDPANDNTLYASKFQGKATISADTSKNTAYLQMNSLRAEDTAVYYCGRGYGYYVFDHWGQGTLVTVSSERKCCVECPPCPAPPVAGPGQPREPQVYTLPPSREEMTKNQVSLTCLVKGFYPSDIAVEWESNGQPENNYKTTPPMLDSDGSFFLYSKLTVDKSRWQQGNVFSCSVMHEALHNHYTQKSLSLSPGK
notes: Minibody homodimer with native IgG2 hinge and IgG2 CH3
B6: IAb_Mb2d_CD8 (other)
chain: QVQLVQSGAEVKKPGATVKISCKVSGFNIKDTYIHFVQQAPGKGLEWIGRIDPANDNTLYASKFQGKATITADTSTDTAYMELSSLRSEDTAVYYCGRGYGYYVFDHWGQGTLVTVSGSTSGGGSGGGSGGGGSSDVQITQSPSSLSASVGDRVTITCRTSRSISQYLAWYQQKPGKVPKLLIYSGSTLQSGVPSRFSGSGSGTDFTLTISSLQPEDVATYYCQQHNENPLTFGGGTKVEIKEPKSCDKTHTCPPCGGGSSGGGSGGQPREPQVYTLPPSRDELTKNQVSLTCLVKGFYPSDIAVEWESNGQPENNYKTTPPVLDSDGSFFLYSKLTVDKSRWQQGNVFSCSVMHEALHNHYTQKSLSLSPGK
notes: also called variant 2d
B7: IAb_Mb2a_CD8 (other)
chain: EVQLVESGGGLVQPGGSLRLSCAASGFNIKDTYIHFVRQAPGKGLEWIGRIDPANDNTLYASKFQGKATISADTSKNTAYLQMNSLRAGDTAVYYCGRGYGYYVFDHWGQGTLVTVSSGSTSGGGSGGGSGGGGSSDVQITQSPSSLSASVGDRVTITCRTSRSISQYLAWYQQKPGKVPKLLIYSGSTLQSGVPSRFSGSGSGTDFTLTISSLQPEDVATYYCQQHNENPLTFGGGTKVEIKEPKSCDKTHTCPPCGGGSSGGGSGGQPREPQVYTLPPSRDELTKNQVSLTCLVKGFYPSDIAVEWESNGQPENNYKTTPPVLDSDGSFFLYSKLTVDKSRWQQGNVFSCSVMHEALHNHYTQKSLSLSPGK
notes: also called variant 2a
B8: IAb_Mb2c_CD8 (other)
chain: B3 chain with W36F, M48I, R67K, V68A, E89G, A97G
notes: also called variant 2c
B9: IAb_Mb1a_CD8 (other)
chain: DVQITQSPSSLSASVGDRVTITCRTSRSISQYLAWYQQKPGKVPKLLIYSGSTLQSGVPSRFSGSGSGTDFTLTISSLQPEDVATYYCQQHNENPLTFGGGTKVEIKGSTSGGGSGGGSGGGGSSEVQLVESGGGLVQPGGSLRLSCAASGFNIKDTYIHFVRQAPGKGLEWIGRIDPANDNTLYASKFQGKATISADTSKNTAYLQMNSLRAGDTAVYYCGRGYGYYVFDHWGQGTLVTVSSEPKSCDKTHTCPPCGGGSSGGGSGGQPREPQVYTLPPSRDELTKNQVSLTCLVKGFYPSDIAVEWESNGQPENNYKTTPPVLDSDGSFFLYSKLTVDKSRWQQGNVFSCSVMHEALHNHYTQKSLSLSPGK
notes: also called variant 1a
B10: IAb_Mb1d_CD8 (other)
chain: DVQITQSPSSLSASVGDRVTITCRTSRSISQYLAWYQQKPGKVPKLLIYSGSTLQSGVPSRFSGSGSGTDFTLTISSLQPEDVATYYCQQHNENPLTFGGGTKVEIKGSTSGGGSGGGSGGGGSSQVQLVQSGAEVKKPGATVKISCKVSGFNIKDTYIHFVQQAPGKGLEWIGRIDPANDNTLYASKFQGKATITADTSTDTAYMELSSLRSEDTAVYYCGRGYGYYVFDHWGQGTLVTVSEPKSCDKTHTCPPCGGGSSGGGSGGQPREPQVYTLPPSRDELTKNQVSLTCLVKGFYPSDIAVEWESNGQPENNYKTTPPVLDSDGSFFLYSKLTVDKSRWQQGNVFSCSVMHEALHNHYTQKSLSLSPGK
notes: also called variant 1d

For orientation: EC50 means the concentration that produces a half-maximal response. A lower EC50 goes with an effect from little substance. In general, Kd refers to the constant that tells how readily two partners part at equilibrium. The koff is the rate constant with which the complex falls apart. Usually kon stands for a measure of how fast the partners come together.

Positions count from the first letter of the chain named.

T2 sequence (P01732 22-182 limits assumed): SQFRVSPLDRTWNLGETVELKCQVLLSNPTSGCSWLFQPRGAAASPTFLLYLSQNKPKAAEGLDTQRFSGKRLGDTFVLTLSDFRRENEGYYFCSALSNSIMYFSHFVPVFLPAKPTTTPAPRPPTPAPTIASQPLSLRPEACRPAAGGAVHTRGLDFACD

In the first assay the target is T1, cell-surface human CD8 (human, UniProt P01732 22-235).
T1 construct: the cell is named under assay; also called cellular human CD8; CD8 on PC3-CD8 cells
T1 sequence (P01732 22-235 limits assumed): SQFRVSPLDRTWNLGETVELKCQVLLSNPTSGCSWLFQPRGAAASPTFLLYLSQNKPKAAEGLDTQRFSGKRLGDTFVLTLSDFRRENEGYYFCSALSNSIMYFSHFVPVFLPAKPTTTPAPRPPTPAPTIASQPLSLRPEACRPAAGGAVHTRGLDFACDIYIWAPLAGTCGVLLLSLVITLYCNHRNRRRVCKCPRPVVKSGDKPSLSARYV
Kind of assay: flow cytometry on HPB-ALL cells, Protein L-biotin then streptavidin-APC. On the procedure:
Flow cytometry analysis of cys-diabody (+/−C-terminal cysteine conjugation to Desferoxamine) binding to cell-surface human CD8 on HPB-ALL cells was performed. Cells were stained with respective concentrations of cys-diabody, washed, stained with a secondary Protein L conjugated to Biotin, washed, then stained with a tertiary streptavidin-APC. Analysis was performed with 10,000 events/point in triplicate for each concentration. The results are shown in graph format in FIG. 30C. The graph presents the mean fluorescence intensity (MFI) vs. the log of the concentration (nM). Error bars represent the standard error. The data indicates an EC₅₀ of 0.04 nM and 0.06 nM.
On the technique in general: A flow cytometer gives signals particle by particle.
B1 gave an EC50 of 0.06 nM.

The target in the next assay is T1, cell-surface human CD8. Kind of assay: flow cytometry on CD8+ cells, transfection supernatant neat to 1:81, anti-human IgG (Fc-specific)-APC. As to the method:
FIGS. 17A-17D display the results of the flow cytometry analysis of the IAb_Mb_CD8 variants. All histograms show allophycocyanin (APC) signal vs. counts. Supernatants from transfection of the variants at different dilutions were incubated with CD8+ cells. Cells were washed and subsequently stained with a secondary anti-human IgG (Fc-specific) APC conjugated antibody. 1×10⁵ cells were stained per point and analysis was performed with 10,000 events/point.
In the case of B2, the binding result is reported as “binds”.

On to B3, for which the binding result is reported as “binds”.

The next assay addresses T1, cell-surface human CD8. Briefly: flow cytometry, HPB-ALL cells. As to the method: (§1) Flow cytometry analysis of minibodies binding to cell-surface human CD8 on HPB-ALL cells was performed. Cells were stained with respective concentrations of minibody, washed, and then stained with a secondary anti-human IgG (Fc-specific) APC-conjugated antibody. Analysis was performed with 10,000 events/point in triplicate for each concentration. The results are shown in graph format in FIG. 29A. The graph presents the normalized mean fluorescence intensity (MFI) vs. the log of the concentration (nM). Error bars represent the standard error. The data indicates an EC₅₀ of 0.15 nM and 0.19 nM.
as §1, with “analysis of IgG2 minibodies binding” for “analysis of minibodies binding”, “in FIG. 29E. The graph” for “in FIG. 29A. The graph”, “EC₅₀ of 0.1 nM, 0.13 nM, and 0.08” for “EC₅₀ of 0.15 nM and 0.19”, “nM, and 0.08 nM.” for “nM and 0.19 nM.”
For the molecule B4, a half-maximal response (EC50) required 0.13 nM.

The molecule B5 registered an EC50 of 0.08 nM.

In a further assay the target is T1, cell-surface human CD8. Briefly: flow cytometry on HPB-ALL cells, anti-human IgG (Fc-specific)-APC. On the procedure:
as §1, with “analysis of IgG2 minibodies binding” for “analysis of minibodies binding”, “in FIG. 29E. The graph” for “in FIG. 29A. The graph”, “EC₅₀ of 0.1 nM, 0.13 nM, and 0.08” for “EC₅₀ of 0.15 nM and 0.19”, “nM, and 0.08 nM.” for “nM and 0.19 nM.”
As to B4, the EC50 was 0.13 nM.

Consider B5, for which the EC50 came to 0.08 nM.

A further assay concerns the target T2, recombinant human CD8 (rhCD8) (human, UniProt P01732 22-182).
T2 construct: Soluble purified recombinant protein; also called purified recombinant human CD8 protein; soluble CD8
Kind of assay: SPR (BIAcore), minibody captured via anti-human IgG Fc, hCD8 analyte at 50 nM. An excerpt: Surface plasma resonance (SPR) was used to determine the binding affinity for all the IAb_Mb_CD8 variants to recombinant human CD8 (Table 8.0). The minibody protein in the supernatant was captured on to the BIAcore chip using an anti-human IgG (Fc-specific) antibody. The amount of minibody captured on the chip was normalized to enable a direct comparison of binding affinity between the variants as a kinetic “scouting” experiment to rank affinities. The rhCD8 protein was passed over the captured minibody protein to measure binding.
Table 8.0 summarizes the measured association (ka), dissociation (kd), and kD constants for the IAb_Mb_CD8 variants binding to recombinant hCD8. The variants were captured on a BIAcore chip using anti-human Fc-specific IgG antibody.
On to B6, for which the Ka was 1.8e+08 M⁻¹, the Kd amounted to 5.5 nM, the koff worked out at 0.0029 s⁻¹ and the on-rate (kon) turned out to be 540000 M⁻¹ s⁻¹.

B7: the Ka was 2.2e+08 M⁻¹, the equilibrium dissociation constant (Kd) is 4.6 nM, the off-rate (koff) came out at 0.0022 s⁻¹ and the kon is 480000 M⁻¹ s⁻¹.

B8: the Ka came out at 2.2e+08 M⁻¹, the Kd was 4.5 nM, the koff is 0.0032 s⁻¹ and the kon came to 720000 M⁻¹ s⁻¹.

With B9, the Ka was determined as 5.3e+08 M⁻¹, the Kd is 1.9 nM, the koff was found to be 0.0012 s⁻¹ and the association rate constant (kon) was found to be 650000 M⁻¹ s⁻¹.

Take B10: the Ka worked out at 3.4e+08 M⁻¹, the Kd was determined as 2.9 nM, the dissociation rate constant (koff) turned out to be 0.002 s⁻¹ and the on-rate (kon) was 700000 M⁻¹ s⁻¹.
